From patent US20140112919A1

T1: recombinant mouse IL-10 (mouse) (UniProt P18893)
T1 sequence: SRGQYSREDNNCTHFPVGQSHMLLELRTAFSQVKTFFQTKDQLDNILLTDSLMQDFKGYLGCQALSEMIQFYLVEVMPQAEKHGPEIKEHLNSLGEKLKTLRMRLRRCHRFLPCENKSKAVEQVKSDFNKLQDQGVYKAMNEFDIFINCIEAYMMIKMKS


Key:
[1] = biological target: recombinant human IL-10 (human) (UniProt P22301)
rat anti hIL-10 mAb 12G8 = test: competitive ECLA (IGEN): unlabeled IL-10 titrated against hIL-10-biotin for binding to rat 12G8
[2] = biological target: recombinant human IL-10 (human) (UniProt P22301); test: KinExA, mean (n)
[3] = biological target: recombinant cyno IL-10 (cyno) (UniProt P79338); test: Biacore, mean ± S.D. (n); format not described
[4] = biological target: recombinant human IL-10 (human) (UniProt P22301); test: Biacore, mean ± S.D. (n); format not described
[5] = biological target: T1, recombinant mouse IL-10 (mouse); test: Biacore, mean ± S.D. (n); format not described

recombinant cyno IL-10 (cyno), sequence (P79338 19-178 limits assumed): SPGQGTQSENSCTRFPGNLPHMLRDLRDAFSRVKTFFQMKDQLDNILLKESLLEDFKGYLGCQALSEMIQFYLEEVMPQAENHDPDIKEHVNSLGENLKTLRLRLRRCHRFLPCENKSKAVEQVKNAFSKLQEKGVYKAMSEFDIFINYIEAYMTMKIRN

Bioassay IC50(pM) [1] [pM]	IC50 (rat anti hIL-10 mAb 12G8) [nM]	Kd [2] [nM]	Kd [3] [nM]	Kd [4] [nM]	Kd [5] [nM]	Binder
93						humanized anti-human IL-10 antibody SCH 708980 (12G8) (antibody, V domains shown) VH: QVQLVESGGGVVQPGRSLRLSCAASGFTFSDYHMAWVRQAPGKGLEWVASITLDATYTYYRDSVRGRFTISRDNSKNTLYLQMNSLRAEDTAVYYCARHRGFSVWLDYWGQGTLVTVSS VL: DIQMTQSPSSLSASVGDRVTITCKTSQNIFENLAWYQQKPGKAPKLLIYNASPLQAGVPSRFSGSGSGTDFTLTISSLQPEDFATYYCHQYYSGYTFGPGTKLELKR
	37.9					recombinant mouse IL-10 (ligand) SRGQYSREDNNCTHFPVGQSHMLLELRTAFSQVKTFFQTKDQLDNILLTDSLMQDFKGYLGCQALSEMIQFYLVEVMPQAEKHGPEIKEHLNSLGEKLKTLRMRLRRCHRFLPCENKSKAVEQVKSDFNKLQDQGVYKAMNEFDIFINCIEAYMMIKMKS
66		0.023	0.33	0.277	7.4	rat anti hIL-10 mAb 12G8 (antibody, from a related filing, V domains shown) VH: EVQLVESGGGLVRPGGSLRLSCTASGFTFSDYHMAWVRQSPDKGLEWVASITLDATYTYYRDSVRGRFTISRNNAKTTLYLQMDSLRSEDTATFYCTRHRGFSVWLDYWGQGVMVTVSS VL: DIQMTQSPSLLSASVGDRVTLNCKTSQNIFENLAWYQQKLREPPKLLIFNASPLQAGIPSRFSGSGSGTDFTLTITSLQPEDVATYFCHQYYSGYTFGPGTKLELKR
